Reference: paper PMC3144404

Molecular target: actin, endogenous (human (endogenous in myoblasts and myotubes from human muscle biopsies)) (UniProt P60709)
Experiment: co-IP

percent of input immunoprecipitated: 87%
Substance: STIM1L (long splice variant of stromal interaction molecule 1), endogenous (from UniProt Q13586-2 23-540) (natural protein)
